# Biological target: C1q (Complement Technologies, Tyler, Tex.) (UniProt P02745)
# Test: cell-based or functional assay
# UniProt P02745, sequence (P02745 23-245 limits assumed, chain 1 of 3): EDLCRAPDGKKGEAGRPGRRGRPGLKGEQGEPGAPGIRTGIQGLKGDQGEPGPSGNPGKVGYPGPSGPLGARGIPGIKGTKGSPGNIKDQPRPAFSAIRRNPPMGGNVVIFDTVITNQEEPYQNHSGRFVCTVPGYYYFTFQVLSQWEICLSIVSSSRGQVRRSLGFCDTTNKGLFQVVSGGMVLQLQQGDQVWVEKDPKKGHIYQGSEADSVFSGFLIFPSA
# UniProt P02745, sequence (P02746 28-253 limits assumed, chain 2 of 3, further chain): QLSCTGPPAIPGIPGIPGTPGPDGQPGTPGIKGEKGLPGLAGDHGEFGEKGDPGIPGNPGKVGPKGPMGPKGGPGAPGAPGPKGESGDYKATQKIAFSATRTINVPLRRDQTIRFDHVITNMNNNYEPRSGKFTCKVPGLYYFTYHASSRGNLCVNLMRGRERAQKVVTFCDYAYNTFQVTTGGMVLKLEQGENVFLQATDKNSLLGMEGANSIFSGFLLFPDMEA
# UniProt P02745, sequence (P02747 29-245 limits assumed, chain 3 of 3, further chain): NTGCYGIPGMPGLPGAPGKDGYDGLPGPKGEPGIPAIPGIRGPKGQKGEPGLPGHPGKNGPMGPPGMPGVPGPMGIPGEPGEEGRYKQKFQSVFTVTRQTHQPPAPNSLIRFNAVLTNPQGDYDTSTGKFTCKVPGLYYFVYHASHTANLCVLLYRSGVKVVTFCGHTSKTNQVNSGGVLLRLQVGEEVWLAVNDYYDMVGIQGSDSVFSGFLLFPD
EC50 values [µg/mL] for C1q requirement for induction of CDC of Daudi cells [µg/mL],"efficacy of C1q utilization, fold improvement by carboxypeptidase B treatment [fold]",Substance
1.3,–,"Anti-CD38 antibody (005), unfractionated preparation isolated from hybridoma supernatant"
4.8,–,"Anti-CD38 antibody (005), collected K2 isoform (two heavy-chain C-terminal lysines per antibody)"
0.8,< 2,"Anti-CD38 antibody (005), unfractionated preparation after carboxypeptidase B treatment"
